Usually Kd stands for a measure of binding affinity in units of concentration.

Assay [1] addresses biotinylated human HHAT-Avi-1D4 (pHR-CMV-TetO2-HHAT-wildtype-Avi-1D4) (human) (UniProt Q5VTY9). The assay can be described thus: BLI; biotinylated HHAT-Avi-1D4 on streptavidin biosensors, 22°C, SHH in 10 mM HEPES pH 7.5, 150 mM NaCl, 0.06% DDM 40:1 CHS, 1 mM DTT, 5 mM CaCl2 with 5-10 mM nhPalm-CoA; multi-cycle kinetics, 300 s association and dissociation, 1:1.5 dilution series from 5 μM; one to two state binding model. A general note: Biolayer interferometry detects binding as a change in optical thickness at a sensor tip.

The target is the same in assay [2]. The assay can be described thus: BLI; SHH on immobilised biotinylated HHAT-Avi-1D4, 22°C, same buffer without nhPalm-CoA.
Assay [3] concerns the target full-length N-terminal signaling domain of human Sonic hedgehog (ShhN), residues 24-193, without lipid attachments (UniProt Q15465). The assay can be described thus: BLI. Particulars: 4 μM SHH (per earlier reader's note; not printed in panel or legend); parent: est. 0.077; read off a plot.

With “full-length N-terminal signaling domain of human Sonic hedgehog (ShhN), residues 24-193, without lipid attachments (from UniProt Q15465 24-193) (domain or fragment)”, in assay [1], the Kd was found to be 3.7 µM. Moreover, in assay [2], the fold reduction of binding without nhPalm-CoA against with nhPalm-CoA was determined as 3 fold and the percent reduction of binding without Palm-CoA turned out to be 50%. For “biotinylated human HHAT-Avi-1D4 (pHR-CMV-TetO2-HHAT-wildtype-Avi-1D4) (from UniProt Q5VTY9) Y382A; Y384A”, the response in assay [3] was determined as 0.011 nm. Take “biotinylated human HHAT-Avi-1D4 (pHR-CMV-TetO2-HHAT-wildtype-Avi-1D4) (from UniProt Q5VTY9) E59R”: the response in assay [3] is -0.012 nm.

For the origin of these results see article PMC8693861.
